Reference: the DeepSol protein solubility set

Test: soluble on expression in E. coli; label from the status in PepcDB or PDB records

Sequence	soluble on expression in E. coli
MGSSHHHHHHSSGLVPRGSHMTPKDDEFYQQWQLKYPKLILREASSVSEELHKEVQEAFLTLHKHGCLFRDLVRIQGKDLLTPVSRILIGNPGCTYKYLNTRLFTVPWPVKGSNIKHTEAEIAAACETFLKLNDYLQIETIQALEELAAKEKANEDAVPLCMSADFPRVGMGSSYNGQDEVDIKSRAAYNVTLLNFMDPQKMPYLKEEPYFGMGKMAVSWHHDENLVDRSAVAVYSYSCEGPEEESEDDSHLEGRDPDIWHVGFKISWDIETPGLAIPLHQGDCYFMLDDLNATHQHCVLAGSQPRFSSTHRVAECSTGTLDYILQRCQLALQNVCDDVDNDDVSLKSFEPAVLKQGEEIHNEVEFEWLRQFWFQGNRYRKCTDWWCQPMAQLEALWKKMEGVTNAVLHEVKREGLPVEQRNEILTAILASLTARQNLRREWHARCQSRIARTLPADQKPECRPYWEKDDASMPLPFDLTDIVSELRGQLLEAKP	soluble
MGSSHHHHHHSSGLVPRGSHMVESKNTELSQGTWLNKPKSVFQEAGKVTLETDEKTDFWRETFYGFTRDSGHFLGVETGSAFTAQVRVQGSYESLYDQAGIMVRIDDGHWLKAGIEISDGHAMLSSVLTNGKSDWSTAVYGGNARDFWLRVTVEKGVLRIQVSSDKKTWPLVRLAPFPTSDHYLVGPMACTPERGGLKVTFSEWSLTAPLGKALHDLS	soluble
MGSSHHHHHHSSGLVPRGSRHSTLDFMLGAKADGETILKGLQSIFQEQGMAESVHTWQDHGYLATYTNKNGSFANLRIYPHGLVLLDLQSYDGDAQGKEEIDSILNKVEERMKELSQDSTGRVKRLPPIVRGGAIDRYWPTADGRLVEYDIDEVVYDEDSPYQNIKILHSKQFGNILILSGDVNLAESDLAYTRAIMGSGKEDYTGKDVLILGGGDGGILCEIVKLKPKMVTMVEIDQMVIDGCKKYMRKTCGDVLDNLKGDCYQVLIEDCIPVLKRYAKEGREFDYVINDLTAVPISTSPEEDSTWEFLRLILDLSMKVLKQDGKYFTQGNCVNLTEALSLYEEQLGRLYCPVEFSKEIVCVPSYLELWVFYTVWKKAKP	soluble
MGSSHHHHHHSSGLVPRGSTSEVIEDEKQFYSKAKTYWKQIPPTVDGMLGGYGHISSIDINSSRKFLQRFLREGPNKTGTSCALDCGAGIGRITKRLLLPLFREVDMVDITEDFLVQAKTYLGEEGKRVRNYFCCGLQDFTPEPDSYDVIWIQWVIGHLTDQHLAEFLRRCKGSLRPNGIIVIKDNMAQEGVILDDVDSSVCRDLDVVRRIICSAGLSLLAEERQENLPDEIYHVYSFALR	soluble
MGSSHHHHHHSSGRENLYFQGHMIPEHLSIYTAYNANIAAIVKLNQETIQNLINAFDPDEVKRRIEEYPREINEPIDFVARLVHTLKLGKPAAVPLVNEKMNEWFDKTFRYEEERLGGQAGIIANTLAGLKIRKVIAYTPFLPKRLAELFKKGVLYPVVENGELQFKPIQEAYREGDPLKINRIFEFRKGLKFKLGDETIEIPNSGRFIVSARFESISRIETREDIKPFLGEIGKEVDGAIFSGYQGLRTKYSDGKDANYYLRRAKEDIIEFKEKDVKIHVEFASVQDRKLRKKIITNILPFVDSVGIDEAEIAQILSVLGYRELADRIFTYNRLEDSILGGMIILDELNFEILQVHTTYYLMYITHRDNPLSEEELAKSLEFGTTLAAARASLGDIRGPDDYKVGLKVPFNERSEYVKLRFEEAKSRLRMREYKVVVIPTRLVQNPVLTVGLGDTISAGAFLTYLEFLKRHGS	soluble
MGSSHHHHHHSSGRENLYFQGHMSCTTDKLIQKYDALVRKTTEHKFAKELCAGTLKDRSLYIYLSQDLQFFETSLRLICKTTSLAPTTHALITLAKKIGFFSNDENSYFHDCLELLAPSLTKEERDNFDNKAIPGVDAYINFLDELRKDASITWPSLVTSLWVAEELYWRWARDTPRAPGLHWKYQKWIDLHDGEHFQTWCEFLKAEVDKFPVEEVESIFVKVSQFEFEFFESCYNA	soluble
MGTPQGKLKTINGVGKIEDFASTKAKMRVRYPLLITFNYWVLYKSPDKSWFISANPSTEDVWVYARSVPSKAKLNRMMMKVRELGYDVKKLEFPLEHHHHHH	not soluble
MGTSSFTFPGFYRAKNMRSPECLDLLDSMNHFILHCHWEHADLNRTSLTERKRLGSKYEYENWFEEKRENSGTKFIKRSSSSKEIHYNCALVTNGDNRQFKKSKKLDQYCASGKVQFHDSGSVDVLGCCSHAGHDT	not soluble
MGVMESGRPPAKPRERVFVGGCLHAGMDHDTAGRTSRQILDAVGSAVIADDHFLETVMTGILARGHVLLEDVPGTGKTLTAQSFATALDLSFKRVQFTPDLLPSDITGSNVFNEATGEFDFQPGPVFANVVLADEINRAPPKTQAALLEAMGEKQVTVDGVTHDLPEPFFVIATQNPVEQEGTFGLPEAQRDRFIVKTSMGYPDFGGERELIDRRADRTAQAPSVTSVIDGERLPALQRTVESVTVDGTLRDYVVELGRATREDDRVDVGVSPRGIQRLFEATRAAAVLDGRDYAVPDDVKTVVEEAFAHRLVLTADAGVRGVDPATVVDDVLDRVEVPAVSPLEHHHHHH	not soluble
MGYLKNHWWKRWIRRRGCKLAGGPASVGKRTTLVLEERVELGHLRIVPPRLEIGAYSYVRSGTDLSLVASIGRFCSIGSDCFIGQEKHTHPSDWVSSHPFQHTGTALRYEPALSYAEIGHDVWIGHSAMVMEGVKVGTGAIIATRAVVTRDVPPYAIVAGTPAQVIRYRHPPEIIEGLLASRWWELDSAFLTGLPLDRPREFLAALEAREAPRAAYRRMTITRQGCRLD	not soluble
MGYNKPAAWKPLDRTDWDVSFSYAYGYDEAQFGGRLAVDGDVSTTWFTWGVVSAGECWWATTLPAPTHLTGFSLTRQTTFGSSYNVREAKVKVKKEGDTEWTEAGLFRFGSFKGNDPQYAVFIPAVENVKEFRIDIVSPADFTGFAELDLYQLEHHHHHH	soluble
MGYTVAVVGATGAVGAQMIKMLEESTLPIDKIRYLASARSAGKSLKFKDQDITIEETTETAFEGVDIALFSAGSSTSAKYAPYAVKAGVVVVDNTSYFRQNPDVPLVVPEVNAHALDAHNGIIACPNCSTIQMMVALEPVRQKWGLDRIIVSTYQAVSGAGMGAILETQRELREVLNDGVKPRDLHAEILPSGGDKKHYPIAFNALPQIDVFTDNDYTYEEMKMTKETKKIMEDDSIAVSATCVRIPVLSAHSESVYIETKEVAPIEEVKAAIAAFPGAVLEDDVAHQIYPQAINAVGSRDTFVGRIRKDLDAEKGIHMWVVSDNLLKGAAWNSVQIAETLHERGLVRPTAELKFELK	soluble
MHEYSIVSALIEQCEQYAKANQATKVTRVEIKLGVMSGVEPALLQTAFETFKLDGICREAKLCMTLQPLVIKCADCQQESVLDERSIVCPACNSYHTRVLDGEEMLLMQLEMEQAEDA	soluble
MHGRLKVKTSEEQAEAKRLEREQKLKLYQSATQAVFQKRQAGELDESVLELTSQILGANPDFATLWNCRREVLQHLETEKSPEESAALVKAELGFLESCLRVNPKSYGTWHHRCWLLSRLPEPNWARELELCARFLEADERNFHCWDYRRFVAAQAAVAPAEELAFTDSLITRNFSNYSSWHYRSCLLPQLHPQPDSGPQGRLPENVLLKELELVQNAFFTDPNDQSAWFYHRWLLGRAEPHDVLCCVHVSREEACLSVCFSRPLTVGSRMGTLLLMVDEAPLSVEWRTPDGRNRPSHVWLCDLPAASLNDQLPQHTFRVIWTGSDSQKECVLLKDRPECWCRDSATDEQLFRCELSVEKSTVLQSELESCKELQELEPENKWCLLTIILLMRALDPLLYEKETLQYFSTLKAVDPMRAAYLDDLRSKFLLENSVLKMEYADVRVLHLAHKDLTVLCHLEQLLLVTHLDLSHNRLRALPPALAALRCLEVLQASDNALENVDGVANLPRLQELLLCNNRLQQSAAIQPLVSCPRLVLLNLQGNSLCQEEGIQERLAEMLPSVSSILT	soluble
MHHHHHHAIGYVWNTLYGWVDTGTGSLAAANLTARMQPISHHLAHPDTKRRFHELVCASGQIEHLTPIAAVAATDADILRAHSAAHLENMKRVSNLPTGGDTGDGITMMGNGGLEIARLSAGGAVELTRRVATGELSAGYALVNPPGHHAPHNAAMGFCIFNNTSVAAGYARAVLGMERVAILDWDVHHGNGTQDIWWNDPSVLTISLHQHLCFPPDSGYSTERGAGNGHGYNINVPLPPGSGNAAYLHAMDQVVLPALRAYRPQLIIVGSGFDASMLDPLARMMVTADGFRQMARRTIDCAADICDGRIVFVQEGGYSPHYLPFCGLAVIEELTGVRSLPDPYHEFLAGMGGNTLLDAERAAIEEIVPLLADIR	soluble
MHHHHHHAMGTKKSAAEASKKPRQKRTATKQYNVTQAFGRRGPEQTQGNFGDQDLIRQGTDYKHWPQIAQFAPSASAFFGMSRIGMEVTPSGTWLTYHGAIKLDDKDPQFKDNVILLNKHIDAYKTFP	soluble
MHHHHHHENLYFQGSTSENITQKVVWVEESDKRSFLLDLLNATGKDSLTLVFVETKKGADSLEDFLYHEGYACTSIHGDRSQRDREEALHQFRSGKSPILVATAVAARGLDISNVKHVINFDLPSDIEEYVHRIGRTGRVGNLGLATSFFNERNINITKDLLDLLVEAKQEVPSWLENMAYEHHY	soluble
MHHHHHHMMSETAEKAIEIWKIRRLVKQLINCHGNGTSMITLIIPPGEQISRYSNMLAEEYGTASNIKSRVNRLSVLSAITSTRERLKLYNKVPDNGLVIYCGEVIMEGNKTRKLNIDFEPFKPINTSQYLCDNKFHTEALAELLESDQRFGFIVMDGHQTLYGVVSGSAREVLQRFTVDLPKKHGRGGQSALRFARLRDEKRHNYVRKVAEGAVQHFITDDKPNVAGIVLAGSADFKTELGQSDLFDQRLQSRIIKTVDVSYGGDAGFNQAIELAADTLSNVKYVQEKKLIQRFFDEISLDSGKYCFGVVDTMNALQEGAVETLLCFADLDMIRYEFKNSEGNPVITYMTKEQEEKDSTNSFLLDKDTGAEMELVSSMLLSEWLAEHYKDYGANLEFVSDRSQEGMQFVKGFGGIGAVMRYQLDLSMLDPESDEFYSDSD	soluble
MHHHHHHSSGRENLYFQGTIDDLFIFKRKLGSGAFGDVHLVEERSSGLERVIKTINKDRSQVPMEQIEAEIEVLKSLDHPNIIKIFEVFEDYHNMYIVMETCEGGELLERIVSAQARGKALSEGYVAELMKQMMNALAYFHSQHVVHKDLKPENILFQDTSPHSPIKIIDFGLAELFKSDEHSTNAAGTALYMAPEVFKRDVTFKCDIWSAGVVMYFLLTGCLPFTGTSLEEVQQKATYKEPNYAVECRPLTPQAVDLLKQMLTKDPERRPSAAQVLHHEWFKQA	soluble
MHHHHHHSSGVDLGTENLYFQSMKIAVIGQSLFGQEVYCHLRKEGHEVVGVFTVPDKDGKADPLGLEAEKDGVPVFKYSRWRAKGQALPDVVAKYQALGAELNVLPFCSQFIPMEIISAPRHGSIIYHPSLLPRHRGASAINWTLIHGDKKGGFSIFWADDGLDTGDLLLQKECEVLPDDTVSTLYNRFLFPEGIKGMVQAVRLIAEGKAPRLPQPEEGATYEGIQKKETAKINWDQPAEAIHNWIRGNDKVPGAWTEACEQKLTFFNSTLNTSGLVPEGDALPIPGAHRPGVVTKAGLILFGNDDKMLLVKNIQLEDGKMILASNFFK	soluble
MHHHHHHSSGVDLGTENLYFQSMMQKLVVTRLSPNFREAVTLSRDCPVPLPGDGDLLVRNRFVGVNASDINYSAGRYDPSVKPPFDIGFEGIGEVVALGLSASARYTVGQAVAYMAPGSFAEYTVVPASIATPVPSVKPEYLTLLVSGTTAYISLKELGGLSEGKKVLVTAAAGGTGQFAMQLSKKAKCHVIGTCSSDEKSAFLKSLGCDRPINYKTEPVGTVLKQEYPEGVDVVYESVGGAMFDLAVDALATKGRLIVIGFISGYQTPTGLSPVKAGTLPAKLLKKSASVQGFFLNHYLSKYQAAMSHLLEMCVSGDLVCEVDLGDLSPEGRFTGLESIFRAVNYMYMGKNTGKIVVELPH	soluble
